Columns and labels:
[1] = target: K63-tetraubiquitin chains, P0CG48
[2] = target: K48-tetraubiquitin chains, P0CG48
[3] = target: T1, HA3-RUB-GST, Q9SHE7
T1 chain: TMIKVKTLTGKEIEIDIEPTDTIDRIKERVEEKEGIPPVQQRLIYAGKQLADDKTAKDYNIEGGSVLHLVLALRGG

[4] = target: purified recombinant linear UB trimers
[5] = target: HA3-UBQ-GST [GST: P08515]
[6] = target: purified recombinant linear UB tetramers
[7] = target: purified recombinant linear UB dimers
[8] = target: HA3-SUMO-GST, P55852

K63-tetraubiquitin chains, P0CG48, sequence (P0CG48 whole entry, looked up): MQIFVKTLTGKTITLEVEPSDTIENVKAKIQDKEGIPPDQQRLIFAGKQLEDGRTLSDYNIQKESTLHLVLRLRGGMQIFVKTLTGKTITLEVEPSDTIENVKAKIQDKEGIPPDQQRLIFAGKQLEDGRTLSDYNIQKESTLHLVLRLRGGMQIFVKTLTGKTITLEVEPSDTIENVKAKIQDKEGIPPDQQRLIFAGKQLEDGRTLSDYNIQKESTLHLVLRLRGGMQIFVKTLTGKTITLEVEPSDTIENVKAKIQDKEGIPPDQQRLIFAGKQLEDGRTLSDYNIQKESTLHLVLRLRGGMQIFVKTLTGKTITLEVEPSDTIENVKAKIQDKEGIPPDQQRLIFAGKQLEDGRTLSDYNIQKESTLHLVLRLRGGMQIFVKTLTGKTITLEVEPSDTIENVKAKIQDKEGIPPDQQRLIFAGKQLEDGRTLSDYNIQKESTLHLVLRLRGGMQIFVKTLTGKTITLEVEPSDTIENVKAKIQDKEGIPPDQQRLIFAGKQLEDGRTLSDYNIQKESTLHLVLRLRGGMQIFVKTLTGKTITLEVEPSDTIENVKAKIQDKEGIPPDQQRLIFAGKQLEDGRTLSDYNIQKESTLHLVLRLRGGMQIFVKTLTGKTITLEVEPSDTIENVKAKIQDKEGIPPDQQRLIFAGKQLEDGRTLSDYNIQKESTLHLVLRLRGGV
K48-tetraubiquitin chains, P0CG48, sequence (P0CG48 whole entry, looked up): as above

B1: OTU9-NΔ 1-100 (protein)
chain: GQENQGEAIDITQESDILHNHNGNMEDKNVARIRFEGGQSSPSRDDDSVCSVEIEEESWSEVGKRLNQMIPIAHVPKINGELPSEDEQISDHERLFQRLQLYGLVENKIEGDGNCQFRSLSDQLYRSPEHHNFVREQVVNQLAYNREIYEGYVPMAYNDYLKAMKRNGEWGDHVTLQAAADLFGVRMFVITSFKDTCYIEILPHFQKSNRLICLSFWAEVHYNSIYPEGELPIPEGKKKKKYWVF
- cleavage [1]: comparable to that catalyzed by the corresponding wild-type proteins
- cleavage [2]: comparable to that catalyzed by the corresponding wild-type proteins

B2: OTU7a-C48S (protein)
chain: MAKTKQQKSKPKKQPHQKQGKDCDLSQFRAQLDALGLKIIQVTADGNSFFRAIADQLEGNEDEHNKYRNMIVLYIVKNREMFEPFIEDDVPFEDYCKTMDDDGTWAGNMELQAASLVTRSNICIHRNMSPRWYIRNFEDTRTRMIHLSYHDGEHYNSVRSKEDACGGPARPVVIEADAKVSAASKQAKATESKSKNKADKCHVNAGAIKVVMSGSCCDNTEKAEQVLLQVNGDVDAAIEFLIADQGMESLTENDTETASASDTINPKHASDSPMENTEQAREELIEEESASGNNSETVQAKCTTQTDDKKIPRNKTCPCGSKKKYKSCCGTATGRSSVKLLVSQTMESKKGRKNLRRGTSNEVEANAPDVGALCI
- cleavage activity [1]: completely abolished
- cleavage activity [2]: completely abolished

B3: OTU10-NΔ1-125 (protein)
chain: EWIGNDNDQDGRSDDSVNVFSCSSPSDTDEYVYSWESDQCDADGEFGRRLNQMVPIPYIPKINGEIPPEEEAVSDHERLRNRLEMFDFTEVKVPGDGNCQFRALADQLYKTADRHKHVRRQIVKQLKSRPDSYQGYVPMDFSDYLRKMSRSGEWGDHVTLQAAADAYRVKIVVLTSFKDTCYIEILPTSQESKGVIFLSFWAEVHYNAIYLNRDTSETELQRKRKWWRFGN
- cleavage [1]: comparable to that catalyzed by the corresponding wild-type proteins
- cleavage [2]: comparable to that catalyzed by the corresponding wild-type proteins

B4: His-tagged OTU2 (protein)
chain: MEGIIVRRVIPSDNSCLFNAIGYVMDKDKNKAPELRQVIAAAVASNKEKYNEAFLGKLNEEYCAWILNPDKWGGAIELSILADYYGREIAAYDIQTSRCDLYGQTRNYDERVMLIYDGLHYDALALSPFEGAEEDFDMTIYPVGKDRSIGSIEGLALNLVKDQQRKRSYTDTANFTLRCGVCQIGVIGQKEAVEHAQATGHVNFQEYK
- in vitro deubiquitylation activity [3]: -
- in vitro deubiquitylation activity [4]: -
- in vitro deubiquitylation activity [5]: -
- in vitro deubiquitylation activity [1]: +
- in vitro deubiquitylation activity [2]: +
- in vitro deubiquitylation activity [6]: -
- in vitro deubiquitylation activity [7]: -
- in vitro deubiquitylation activity [8]: -

B5: His-tagged OTU3 (protein)
chain: MELKSSSNNNILEQLRNGFARFELVSSPTASVSDSISSTSLPASFISTTKGNSYVFFARINSSMNRSPAAKKVEKYAVDRVKGDGRCLFRALVKGMAFNKGITLNPQRERDDADELRMAVKEVICNDPKEREKYKEALVAITVDESLKRFCQRIGRHDFWGGESELLVLSKLCKQPIIVYIPEHEHGRGGGYGPGFIPIQEYGSEFRGGWGKGKTNKNVVRLLYSGRNHYDLLR
- in vitro deubiquitylation activity [3]: +
- in vitro deubiquitylation activity [4]: +
- in vitro deubiquitylation activity [5]: ++
- in vitro deubiquitylation activity [1]: +++
- in vitro deubiquitylation activity [2]: ++
- in vitro deubiquitylation activity [6]: +
- in vitro deubiquitylation activity [7]: -
- in vitro deubiquitylation activity [8]: -

B6: GST-OTU4c-C136S (protein)
chain: MMICYSPITTCSRNAISIKRHLGSRLYGVVAHGSSKFSCYSLLSGLSRRHYTGFRVSVSNRPSSWHDKGLFGFAYTGVIVSLLVCYSSTSQSAYADSSRDKDANNVHHHSSDGKFHNGKRVYTDYSIIGIPGDGRSLFRSVAHGFCLRSGKLAPGEKMQRELADELRTRVADEFIQRRQETEWFVEGDFDTYVRQIRDPHVWGGEPELFMASHVLQMPITVYMKDDKAGGLISIAEYGQEYGKDDPIRVLYHGFGHYDALLLHESKASIPKSKL
- fusion protein cleavage activity [3]: generally abolished
- linear UB polymer cleavage activity [4]: generally abolished
- fusion protein cleavage activity [5]: generally abolished
- cleavage activity [1]: completely abolished
- cleavage activity [2]: completely abolished
- linear UB polymer cleavage activity [6]: generally abolished
- linear UB polymer cleavage activity [7]: generally abolished

B7: GST-OTU4c (protein)
chain: MMICYSPITTCSRNAISIKRHLGSRLYGVVAHGSSKFSCYSLLSGLSRRHYTGFRVSVSNRPSSWHDKGLFGFAYTGVIVSLLVCYSSTSQSAYADSSRDKDANNVHHHSSDGKFHNGKRVYTDYSIIGIPGDGRCLFRSVAHGFCLRSGKLAPGEKMQRELADELRTRVADEFIQRRQETEWFVEGDFDTYVRQIRDPHVWGGEPELFMASHVLQMPITVYMKDDKAGGLISIAEYGQEYGKDDPIRVLYHGFGHYDALLLHESKASIPKSKL
- in vitro deubiquitylation activity [3]: +
- in vitro deubiquitylation activity [4]: ++
- in vitro deubiquitylation activity [5]: ++
- in vitro deubiquitylation activity [1]: +++
- in vitro deubiquitylation activity [2]: +++
- in vitro deubiquitylation activity [6]: ++
- in vitro deubiquitylation activity [7]: -
- in vitro deubiquitylation activity [8]: -

B8: OTU1-C92S (protein)
chain: MQNQIDMVKDEAEVAASISAIKGEEWGNCSSVEDQPSFQEEEAAKVPYVGDKEPLSSLAAEYQSGSPILLEKIKILDSQYIGIRRTRGDGNSFFRSFMFSYLEHILESQDRAEVDRIKVNVEKCRKTLQNLGYTDFTFEDFFALFLEQLDDILQGTEESISYDELVNRSRDQSVSDYIVMFFRFVTAGDIRTRADFFEPFITGLSNATVDQFCKSSVEPMGEESDHIHITALSDALGVAIRVVYLDRSSCDSGGVTVNHHDFVPVGITNEKDEEASAPFITLLYRPGHYDILYPKPSCKVSDNVGK
- linear UB polymer cleavage activity [4]: generally abolished
- cleavage activity [1]: completely abolished
- cleavage activity [2]: completely abolished
- linear UB polymer cleavage activity [6]: generally abolished
- linear UB polymer cleavage activity [7]: generally abolished

B9: OTU1-D89E (protein)
chain: MQNQIDMVKDEAEVAASISAIKGEEWGNCSSVEDQPSFQEEEAAKVPYVGDKEPLSSLAAEYQSGSPILLEKIKILDSQYIGIRRTRGEGNCFFRSFMFSYLEHILESQDRAEVDRIKVNVEKCRKTLQNLGYTDFTFEDFFALFLEQLDDILQGTEESISYDELVNRSRDQSVSDYIVMFFRFVTAGDIRTRADFFEPFITGLSNATVDQFCKSSVEPMGEESDHIHITALSDALGVAIRVVYLDRSSCDSGGVTVNHHDFVPVGITNEKDEEASAPFITLLYRPGHYDILYPKPSCKVSDNVGK
- linear UB polymer cleavage activity [4]: to a similar extent as the wild-type protein
- cleavage activity [1]: completely abolished
- cleavage activity [2]: completely abolished
- linear UB polymer cleavage activity [6]: to a similar extent as the wild-type protein
- linear UB polymer cleavage activity [7]: to a similar extent as the wild-type protein

B10: OTU1-H288R (protein)
chain: MQNQIDMVKDEAEVAASISAIKGEEWGNCSSVEDQPSFQEEEAAKVPYVGDKEPLSSLAAEYQSGSPILLEKIKILDSQYIGIRRTRGDGNCFFRSFMFSYLEHILESQDRAEVDRIKVNVEKCRKTLQNLGYTDFTFEDFFALFLEQLDDILQGTEESISYDELVNRSRDQSVSDYIVMFFRFVTAGDIRTRADFFEPFITGLSNATVDQFCKSSVEPMGEESDHIHITALSDALGVAIRVVYLDRSSCDSGGVTVNHHDFVPVGITNEKDEEASAPFITLLYRPGRYDILYPKPSCKVSDNVGK
- linear UB polymer cleavage activity [4]: generally abolished
- cleavage activity [1]: completely abolished
- cleavage activity [2]: completely abolished
- linear UB polymer cleavage activity [6]: generally abolished
- linear UB polymer cleavage activity [7]: generally abolished

B11: OTU10-NΔ1-173 (protein)
chain: RLNQMVPIPYIPKINGEIPPEEEAVSDHERLRNRLEMFDFTEVKVPGDGNCQFRALADQLYKTADRHKHVRRQIVKQLKSRPDSYQGYVPMDFSDYLRKMSRSGEWGDHVTLQAAADAYRVKIVVLTSFKDTCYIEILPTSQESKGVIFLSFWAEVHYNAIYLNRDTSETELQRKRKWWRFGN
- cleavage [1]: comparable to that catalyzed by the corresponding wild-type proteins
- cleavage [2]: comparable to that catalyzed by the corresponding wild-type proteins

B12: OTU4c-NΔ (protein)
chain: SGLSRRHYTGFRVSVSNRPSSWHDKGLFGFAYTGVIVSLLVCYSSTSQSAYADSSRDKDANNVHHHSSDGKFHNGKRVYTDYSIIGIPGDGRCLFRSVAHGFCLRSGKLAPGEKMQRELADELRTRVADEFIQRRQETEWFVEGDFDTYVRQIRDPHVWGGEPELFMASHVLQMPITVYMKDDKAGGLISIAEYGQEYGKDDPIRVLYHGFGHYDALLLHESKASIPKSKL
- catalytic activities [3]: did not modify
- catalytic activities [4]: did not modify
- catalytic activities [5]: did not modify
- catalytic activities [1]: did not modify
- catalytic activities [2]: did not modify
- catalytic activities [6]: did not modify
- catalytic activities [7]: did not modify

B13: OTU9-NΔ1-172 (protein)
chain: AHVPKINGELPSEDEQISDHERLFQRLQLYGLVENKIEGDGNCQFRSLSDQLYRSPEHHNFVREQVVNQLAYNREIYEGYVPMAYNDYLKAMKRNGEWGDHVTLQAAADLFGVRMFVITSFKDTCYIEILPHFQKSNRLICLSFWAEVHYNSIYPEGELPIPEGKKKKKYWVF
- cleavage [1]: comparable to that catalyzed by the corresponding wild-type proteins
- cleavage [2]: comparable to that catalyzed by the corresponding wild-type proteins

From patent US20150353909
